Results reported in patent publication US20180305414A1.

B1: chimeric protein PL-014 containing immunoglobulin-binding domain 4 of Protein L (designed binder)
chain: MAQHDEAGLALETPEEPKEEVTIKVNLIFADGKTQTAEFKGTFEEATAEAYRYADLLAKVNGEYTADLEDGGYTINIKFAGALPSKSKKILKEAKKLNKAQAPKKKK
B2: modified product PL-026 of immunoglobulin-binding domain 4 (designed binder)
chain: MAQHDEAGLALEKPEEPREEVTIRVNLIFADGKTQTAEFKGTFEEATAEAYRYADLLAKVNGEYTADLEDGGYTINIKFAGALPSKSKKILKEAKKLNKAQAPKKKK
B3: modified product PL-052 of immunoglobulin-binding domain 4 (designed binder)
chain: MAQHDEAGLALEKPEEPREEVTIRVNLIFADGHTQTAEFKGTFEEATAEAYRYADLLAKVNGEYTADLEDGGYTINIKFAGALPSKSKKILKEAKKLNKAQAPKKKK
B4: modified product PL-036 of immunoglobulin-binding domain 4 (designed binder)
chain: MAQHDEAGLALEKPEEPREEVTIRVNLIFADGRTQTAEFKGTFEEATAEAYRYADLLAKVNGEYTADLEDGGYTINIKFAGALPSKSKKILKEAKKLNKAQAPKKKK
B5: modified product PL-028 of immunoglobulin-binding domain 4 (designed binder)
chain: MAQHDEAGLALEKPEEPKEEVTIKVNLIFADGKTQTAEFRGTFEEATAEAYRYADLLARVNGEYTADLEDGGYTINIRFAGALPSKSKKILKEAKKLNKAQAPKKKK
B6: modified product PL-060 of immunoglobulin-binding domain 4 (designed binder)
chain: MAQHDEAGLALEKPEEPTEEVTIRVNLIFADGRTQTAEFKGTFEEATAEAYRYADLLAKVNGEYTADLEDGGYTINIKFAGALPSKSKKILKEAKKLNKAQAPKKKK
B7: chimeric protein PL-022 containing immunoglobulin-binding domain 2 of Protein L (designed binder)
chain: MAQHDEAGLALEKPEEPKEEVTIKVNLIFADGKTQTAEFKGTFEEATAKAYAYADLLAKENGEYTADLEDGGNTINIKFAGALPSKSKKILKEAKKLNKAQAPKKKK
B8: modified product PL-035 of immunoglobulin-binding domain 4 (designed binder)
chain: MAQHDEAGLALETPEEPREEVTIRVNLIFADGKTQTAEFKGTFEEATAEAYRYADLLAKVNGEYTADLEDGGYTINIKFAGALPSKSKKILKEAKKLNKAQAPKKKK
B9: modified product PL-051 of immunoglobulin-binding domain 4 (designed binder)
chain: MAQHDEAGLALEKPEEPREEVTIRVNLIFADGLTQTAEFKGTFEEATAEAYRYADLLAKVNGEYTADLEDGGYTINIKFAGALPSKSKKILKEAKKLNKAQAPKKKK
B10: modified product PL-044 of immunoglobulin-binding domain 4 (designed binder)
chain: MAQHDEAGLALEKPEEPKEEVTIKVNLIFADGRTQTAEFKGTFEEATAEAYRYADLLAKVNGEYTADLEDGGYTINIKFAGALPSKSKKILKEAKKLNKAQAPKKKK
B11: modified product PL-058 of immunoglobulin-binding domain 4 (designed binder)
chain: MAQHDEAGLALEKPEEPREEVTIKVNLIFADGRTQTAEFRGTFEEATAEAYRYADLLAKVNGEYTADLEDGGYTINIKFAGALPSKSKKILKEAKKLNKAQAPKKKK
B12: modified product PL-043 of immunoglobulin-binding domain 4 (designed binder)
chain: MAQHDEAGLALERPEEPKEEVTIKVNLIFADGKTQTAEFKGTFEEATAEAYRYADLLAKVNGEYTADLEDGGYTINIKFAGALPSKSKKILKEAKKLNKAQAPKKKK
B13: chimeric protein PL-023 containing immunoglobulin-binding domain 3 of Protein L (designed binder)
chain: MAQHDEAGLALETPEEPKEEVTIKVNLIFADGKIQTAEFKGTFEEATAKAYAYANLLAKENGEYTADLEDGGNTINIKFAGALPSKSKKILKEAKKLNKAQAPKKKK
B14: modified product PL-045 of immunoglobulin-binding domain 4 (designed binder)
chain: MAQHDEAGLALERPEEPKEEVTIKVNLIFADGRTQTAEFKGTFEEATAEAYRYADLLAKVNGEYTADLEDGGYTINIKFAGALPSKSKKILKEAKKLNKAQAPKKKK
B15: modified product PL-057 of immunoglobulin-binding domain 4 (designed binder)
chain: MAQHDEAGLALEKPEEPREEVTIRVNLIFADGKTQTAEFRGTFEEATAEAYRYADLLAKVNGEYTADLEDGGYTINIKFAGALPSKSKKILKEAKKLNKAQAPKKKK
B16: modified product PL-059 of immunoglobulin-binding domain 4 (designed binder)
chain: MAQHDEAGLALEKPEEPREEVTIKVNLIFADGKTQTAEFRGTFEEATAEAYRYADLLAKVNGEYTADLEDGGYTINIKFAGALPSKSKKILKEAKKLNKAQAPKKKK
B17: modified product PL-055 of immunoglobulin-binding domain 4 (designed binder)
chain: MAQHDEAGLALEKPEEPREEVTIRVNLIFADGFTQTAEFKGTFEEATAEAYRYADLLAKVNGEYTADLEDGGYTINIKFAGALPSKSKKILKEAKKLNKAQAPKKKK
B18: modified product PL-049 of immunoglobulin-binding domain 4 (designed binder)
chain: MAQHDEAGLALEKPEEPREEVTIRVNLIFADGRTQTAEFRGTFEEATAEAYRYADLLAKVNGEYTADLEDGGYTINIKFAGALPSKSKKILKEAKKLNKAQAPKKKK
B19: modified product PL-050 of immunoglobulin-binding domain 4 (designed binder)
chain: MAQHDEAGLALEKPEEPREEVTIRVNLIFADGTTQTAEFKGTFEEATAEAYRYADLLAKVNGEYTADLEDGGYTINIKFAGALPSKSKKILKEAKKLNKAQAPKKKK
B20: modified product PL-038 of immunoglobulin-binding domain 4 (designed binder)
chain: MAQHDEAGLALERPEEPREEVTIRVNLIFADGRTQTAEFRGTFEEATAEAYRYADLLARVNGEYTADLEDGGYTINIRFAGALPSKSKKILKEAKKLNKAQAPKKKK
B21: modified product PL-046 of immunoglobulin-binding domain 4 (designed binder)
chain: MAQHDEAGLALEKPEEPREEVTIKVNLIFADGRTQTAEFKGTFEEATAEAYRYADLLAKVNGEYTADLEDGGYTINIKFAGALPSKSKKILKEAKKLNKAQAPKKKK
B22: modified product PL-056 of immunoglobulin-binding domain 4 (designed binder)
chain: MAQHDEAGLALEKPEEPREEVTIRVNLIFADGATQTAEFKGTFEEATAEAYRYADLLAKVNGEYTADLEDGGYTINIKFAGALPSKSKKILKEAKKLNKAQAPKKKK
B23: modified product PL-047 of immunoglobulin-binding domain 4 (designed binder)
chain: MAQHDEAGLALEKPEEPKEEVTIRVNLIFADGRTQTAEFKGTFEEATAEAYRYADLLAKVNGEYTADLEDGGYTINIKFAGALPSKSKKILKEAKKLNKAQAPKKKK
B24: modified product PL-048 of immunoglobulin-binding domain 4 (designed binder)
chain: MAQHDEAGLALEKPEEPKEEVTIRVNLIFADGRTQTAEFRGTFEEATAEAYRYADLLAKVNGEYTADLEDGGYTINIKFAGALPSKSKKILKEAKKLNKAQAPKKKK
B25: modified product PL-054 of immunoglobulin-binding domain 4 (designed binder)
chain: MAQHDEAGLALEKPEEPREEVTIRVNLIFADGQTQTAEFKGTFEEATAEAYRYADLLAKVNGEYTADLEDGGYTINIKFAGALPSKSKKILKEAKKLNKAQAPKKKK
B26: modified product PL-024 of immunoglobulin-binding domain 4 (designed binder)
chain: MAQHDEAGLALETPEEPREEVTIRVNLIFADGRTQTAEFRGTFEEATAEAYRYADLLARVNGEYTADLEDGGYTINIRFAGALPSKSKKILKEAKKLNKAQAPKKKK
B27: modified product PL-053 of immunoglobulin-binding domain 4 (designed binder)
chain: MAQHDEAGLALEKPEEPREEVTIRVNLIFADGETQTAEFKGTFEEATAEAYRYADLLAKVNGEYTADLEDGGYTINIKFAGALPSKSKKILKEAKKLNKAQAPKKKK
B28: modified product PL-061 of immunoglobulin-binding domain 3 (designed binder)
chain: MAQHDEAGLALETPEEPREEVTIRVNLIFADGRIQTAEFRGTFEEATAKAYAYANLLAKENGEYTADLEDGGNTINIKFAGALPSKSKKILKEAKKLNKAQAPKKKK
B29: modified product PL-027 of immunoglobulin-binding domain 4 (designed binder)
chain: MAQHDEAGLALETPEEPREEVTIRVNLIFADGRTQTAEFKGTFEEATAEAYRYADLLAKVNGEYTADLEDGGYTINIKFAGALPSKSKKILKEAKKLNKAQAPKKKK
B30: chimeric protein PL-021 containing immunoglobulin-binding domain 1 of Protein L (designed binder)
chain: MAQHDEAGLALETPEPEEEVTIKANLIFADGSTQNAEFKGTFAKAVSDAYAYADALKKDNGEYTVDVADKGLTLNIKFAGALPSKSKKILKEAKKLNKAQAPKKKK
B31: tetrameric multidomain polypeptide PL-424 (four linked modified domains of PL-024) (designed binder)
chain: AQHDEAGLALETPEEPREEVTIRVNLIFADGRTQTAEFRGTFEEATAEAYRYADLLARVNGEYTADLEDGGYTINIRFAGALETPEEPREEVTIRVNLIFADGRTQTAEFRGTFEEATAEAYRYADLLARVNGEYTADLEDGGYTINIRFAGALETPEEPREEVTIRVNLIFADGRTQTAEFRGTFEEATAEAYRYADLLARVNGEYTADLEDGGYTINIRFAGALETPEEPREEVTIRVNLIFADGRTQTAEFRGTFEEATAEAYRYADLLARVNGEYTADLEDGGYTINIRFAGALPSKSKKILKEAKKLNKAQAPKKKK

Legend:
[1] = molecular target: human IgG (available from the Chemo-Sero-Therapeutic Research Institute) (human); test: binding capacity; binder immobilised on agarose gel, human IgG, acid elution, A280
[2] = molecular target: human IgG (available from the Chemo-Sero-Therapeutic Research Institute) (human); test: binding capacity; binder immobilised on agarose gel, 40 mg/mL human IgG, acid elution, A280
[3] = molecular target: human IgG (available from the Chemo-Sero-Therapeutic Research Institute) (human); test: binding capacity; binder immobilised on agarose gel, human IgG
[4] = molecular target: Fab prepared by papain treatment of human IgG (human); test: binding capacity against Capto L
[5] = molecular target: human IgG (available from the Chemo-Sero-Therapeutic Research Institute) (human); test: binding capacity against Capto L
[6] = molecular target: Fab prepared by papain treatment of human IgG (human); test: binding capacity; binder immobilised on agarose gel, 20 mg/mL human Fab, acid elution, A280

| Binder | IgG Binding Capacity [1] [mg/mL gel] | further results |
| --- | --- | --- |
| B1 | 57 | IgG Binding Capacity [2]: 57.4 mg/mL gel |
| B2 | 57.8 |  |
| B3 | 58.5 |  |
| B4 | 59.1 |  |
| B5 | 60.1 | increase of binding capacity against PL-014 [3]: 5% |
| B6 | 57.6 |  |
| B7 |  | IgG Binding Capacity [2]: 53.3 mg/mL gel |
| B8 | 56.9 |  |
| B9 | 57.3 |  |
| B10 | 58.9 |  |
| B11 | 58.6 |  |
| B12 | 59.3 |  |
| B13 | 52.2 | IgG Binding Capacity [2]: 52.2 mg/mL gel |
| B14 | 60.6 |  |
| B15 | 55.6 |  |
| B16 | 56.1 |  |

| Binder | IgG Binding Capacity [1] [mg/mL gel] | further results |
| --- | --- | --- |
| B17 | 57.3 |  |
| B18 | 59.7 |  |
| B19 | 59 |  |
| B20 | 63.6 | increase of binding capacity against PL-014 [3]: 11% |
| B21 | 59.7 |  |
| B22 | 61.6 |  |
| B23 | 59.2 |  |
| B24 | 57.9 |  |
| B25 | 58.4 |  |
| B26 | 63.4 | increase of binding capacity against PL-014 [3]: 11% |
| B27 | 55.9 |  |
| B28 | 59.8 |  |
| B29 | 58.6 |  |
| B30 |  | IgG Binding Capacity [2]: 45.3 mg/mL gel |
| B31 | 91.6 | amount of bound Fab fragment relative to Capto L [4]: 2.4 times; amount of bound IgG relative to Capto L [5]: 2.2 times; human IgG binding capacity relative to PL-024 [3]: 144%; Fab Binding Capacity [6]: 72.4 mg/mL gel |
